Results: patent publication US20120220530A1

Assays:
[1] = molecular target: soluble mouse FcRn (smFcRn) (mouse) (UniProt Q61559); experiment: SPR, FcRn immobilized, steady state (Req)
[2] = molecular target: shFcRn heterodimer produced by GeneArt AG (human) (UniProt P55899); experiment: SPR (Biacore), immobilized shFcRn
Sequence of shFcRn heterodimer produced by GeneArt AG (human) (P55899 24-290 limits assumed, chain 1 of 2): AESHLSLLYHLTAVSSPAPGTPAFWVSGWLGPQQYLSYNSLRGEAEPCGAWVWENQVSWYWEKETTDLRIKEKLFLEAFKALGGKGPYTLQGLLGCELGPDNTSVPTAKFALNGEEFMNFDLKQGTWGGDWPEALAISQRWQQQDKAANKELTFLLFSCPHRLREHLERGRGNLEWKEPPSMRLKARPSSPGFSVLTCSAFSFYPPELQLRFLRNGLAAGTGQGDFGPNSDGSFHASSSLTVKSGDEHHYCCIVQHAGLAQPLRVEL
Sequence of shFcRn heterodimer produced by GeneArt AG (human) (chain, as listed by the source limits assumed, chain 2 of 2): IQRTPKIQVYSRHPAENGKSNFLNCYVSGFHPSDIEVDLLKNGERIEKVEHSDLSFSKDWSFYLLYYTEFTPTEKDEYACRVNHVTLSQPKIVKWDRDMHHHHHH

Sequence of soluble mouse FcRn (smFcRn) (mouse) (Q61559 22-290): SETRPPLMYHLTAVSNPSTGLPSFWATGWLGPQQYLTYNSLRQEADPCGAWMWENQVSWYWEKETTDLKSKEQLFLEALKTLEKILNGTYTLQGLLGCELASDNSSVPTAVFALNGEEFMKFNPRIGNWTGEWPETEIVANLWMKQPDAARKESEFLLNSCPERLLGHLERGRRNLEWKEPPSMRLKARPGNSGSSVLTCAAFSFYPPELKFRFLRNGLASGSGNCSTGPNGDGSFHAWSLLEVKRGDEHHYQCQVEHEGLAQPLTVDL

Row | Kd [1] [µM] | Kd [2] [µM] | Substance
1 | 86.2 |  | recombinant human serum albumin (RECOMBUMIN) (from UniProt P02768 25-609) (ligand; other documents disagree on this pair)
2 |  | 0.02 | HSA K573P conjugated to horseradish peroxidase (from UniProt P00433 31-338)
